Experimental data: patent US20050048594

Key:
[1] = system: T1, peptide ARKRERAF(3-CF3)SFGHHA
T1 sequence: ARKRERAFSFGHHA

[2] = system: T2, CF3-CO N-capped-AKTide (CF3-CO-ARKRERAYSFGHHA)
T2 sequence: ARKRERAYSFGHHA

WtAKT1 recombinant protein (activated protein Ser/Thr kinase AKT1)
phosphorylation of the peptide followed by 19F NMR (25 nM AKT1) [1]: The peptide is a good substrate for AKT1 and trypsin | phosphorylation of the peptide followed by 19F NMR (time to complete conversion; 50 nM AKT1, 30 uM peptide, 131 uM ATP) [2]: The enzymatic reaction is complete after 149 minutes and only the signal of the phosphorylated peptide is visible in the spectrum
